The source of these data is patent US20240116985A1 (published 2024).

Starred links: 1 amine or outer side, 2 acyl side, 3 side chain; linkers in the order of their positions; H or OH if unused. Positions of bridges follow the written chain, without caps; N, C: chain ends. Non-standard residues stand in square brackets, D forms with d. Primed or numbered codes have the meaning given here. PyrS2(3) = (S)-3-amino-1-((pent-4-en-1-yloxy)carbonyl)pyrrolidine-3-carboxylic acid, stapling residue, C=CCCCOC(=O)N1CC[C@@](N[*:1])(C(=O)[*:2])C1; PyrS2″ = (S)-3-amino-1-((pent-4-en-1-yloxy)carbonyl)pyrrolidine-3-carboxylic acid (stapling residue), C=CCCCOC(=O)N1CC[C@@](N[*:1])(C(=O)[*:2])C1; B5(23) = 2-amino-2-(pent-4-en-1-yl)hept-6-enoic acid (2,2-bis(4-pentenyl)glycine), stitching residue, C=CCCCC(CCCC=C)(N[*:1])C(=O)[*:2]; B5(3) = 2,2-bis(4-pentenyl)glycine (stitching residue), C=CCCCC(CCCC=C)(N[*:1])C(=O)[*:2]; B5″ = 2,2-bis(4-pentenyl)glycine, stitching residue, C=CCCCC(CCCC=C)(N[*:1])C(=O)[*:2]; Phe(F5) = N[C@@H](Cc1c(F)c(F)c(F)c(F)c1F)C(=O)O; Phe(3-COOH) = N[C@@H](Cc1cccc(C(=O)O)c1)C(=O)O; Phe(3-F) = N[C@@H](Cc1cccc(F)c1)C(=O)O; His(τ-Me) = Cn1cnc(C[C@H](N)C(=O)O)c1; Bta = N[C@@H](Cc1csc2ccccc12)C(=O)O; Lys(iPr) = CC(C)NCCCC[C@H](N)C(=O)O; αAllylPro = C=CC[C@@]1(C(=O)O)CCCN1; tBuAla = CC(C)(C)C[C@H](N)C(=O)O; 3Thi = N[C@@H](Cc1ccsc1)C(=O)O; Cha = N[C@@H](CC1CCCCC1)C(=O)O; S8 = C=CCCCCCC[C@](C)(N)C(=O)O; R5 = C=CCCC[C@@](C)(N)C(=O)O; hSer = N[C@@H](CCO)C(=O)O; Aib = CC(C)(N)C(=O)O

The first experiment concerns the target T1, B-cat-Halo (beta-catenin HaloTag fusion expressed in HEK293 cells) (UniProt P35222 1-781, HaloTag NanoBRET 618 Ligand bound to the HaloTag).
T1 sequence (looked up): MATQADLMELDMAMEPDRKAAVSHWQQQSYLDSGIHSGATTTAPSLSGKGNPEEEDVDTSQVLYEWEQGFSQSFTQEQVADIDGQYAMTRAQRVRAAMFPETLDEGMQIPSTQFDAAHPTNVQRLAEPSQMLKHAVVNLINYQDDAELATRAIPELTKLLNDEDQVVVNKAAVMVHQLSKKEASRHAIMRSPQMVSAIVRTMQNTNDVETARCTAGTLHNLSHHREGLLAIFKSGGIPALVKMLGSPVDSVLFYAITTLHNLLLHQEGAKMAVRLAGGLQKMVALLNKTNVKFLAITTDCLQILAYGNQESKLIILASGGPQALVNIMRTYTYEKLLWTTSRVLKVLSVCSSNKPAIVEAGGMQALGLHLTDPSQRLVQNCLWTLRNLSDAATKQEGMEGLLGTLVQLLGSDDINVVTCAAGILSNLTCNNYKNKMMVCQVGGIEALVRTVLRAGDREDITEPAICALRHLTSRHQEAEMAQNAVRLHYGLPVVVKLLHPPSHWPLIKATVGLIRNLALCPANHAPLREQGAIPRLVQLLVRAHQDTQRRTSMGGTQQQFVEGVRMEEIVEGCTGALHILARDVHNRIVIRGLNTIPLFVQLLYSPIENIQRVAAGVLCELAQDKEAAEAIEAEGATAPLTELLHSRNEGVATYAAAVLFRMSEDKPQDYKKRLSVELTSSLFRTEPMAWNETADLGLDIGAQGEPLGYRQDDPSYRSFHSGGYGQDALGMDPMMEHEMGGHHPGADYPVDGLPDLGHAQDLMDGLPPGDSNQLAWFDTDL
Nature of the experiment: cell-based or functional assay.
As to Ac-[αAllylPro]N[Cha][B5(3)]DQ[hSer]AFL[PyrS2″]F[Bta]Q-NH2 (staple 1-4, 4-11; also: earlier eluting isomer, configuration not given here) [I-2354], the “NanoBRET Abs IC50” value is over 20 µM.
On to Ac-[αAllylPro]D[tBuAla][B5(3)]NT[Aib]AFN[PyrS2″][3Thi][Bta]Q-NH2 (staple 1-4, 4-11) [I-2338], for which the “NanoBRET Abs IC50” value was over 20 µM.
For the molecule Ac-[αAllylPro]D[tBuAla][B5(3)]N[Phe(3-COOH)]AAFT[PyrS2″][3Thi][Bta]Q-NH2 (staple 1-4, 4-11) [I-2336], the “NanoBRET Abs IC50” value was found to be 14.4 µM.
Still for that read-out and setting: the result for Ac-[αAllylPro]N[Cha][B5(3)]D[Phe(3-COOH)][Lys(iPr)]AFL[PyrS2″]F[Bta]Q-NH2 (staple 1-4, 4-11) [I-2340] reads over 20 µM.

The next experiment deals with T2, B-cat-Halo (beta-catenin HaloTag construct expressed in HEK293 cells) (UniProt P35222 1-781).
T2 sequence (looked up): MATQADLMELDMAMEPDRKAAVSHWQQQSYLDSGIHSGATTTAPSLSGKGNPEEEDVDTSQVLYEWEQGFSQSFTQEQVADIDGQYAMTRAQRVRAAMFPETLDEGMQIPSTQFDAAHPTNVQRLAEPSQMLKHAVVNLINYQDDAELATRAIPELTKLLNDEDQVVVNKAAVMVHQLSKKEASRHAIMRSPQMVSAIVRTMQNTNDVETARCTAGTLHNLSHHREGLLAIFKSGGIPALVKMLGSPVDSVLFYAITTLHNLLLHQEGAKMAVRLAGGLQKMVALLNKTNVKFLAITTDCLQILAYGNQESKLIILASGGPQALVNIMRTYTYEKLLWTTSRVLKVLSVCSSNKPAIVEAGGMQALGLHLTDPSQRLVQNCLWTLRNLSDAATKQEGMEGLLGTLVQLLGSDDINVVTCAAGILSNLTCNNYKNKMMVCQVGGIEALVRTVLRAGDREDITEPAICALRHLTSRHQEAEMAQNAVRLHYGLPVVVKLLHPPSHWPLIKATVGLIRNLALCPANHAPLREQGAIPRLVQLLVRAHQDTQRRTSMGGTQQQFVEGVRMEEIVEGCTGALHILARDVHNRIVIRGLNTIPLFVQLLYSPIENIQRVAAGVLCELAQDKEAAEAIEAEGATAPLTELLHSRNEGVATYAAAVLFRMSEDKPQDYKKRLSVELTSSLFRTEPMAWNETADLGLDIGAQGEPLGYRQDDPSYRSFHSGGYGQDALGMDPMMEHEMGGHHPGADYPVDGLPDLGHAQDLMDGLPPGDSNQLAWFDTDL
Briefly: cell-based or functional assay.
Turning to Ac-PD[tBuAla][R5]DDAAFL[PyrS2(3)][3Thi][Bta]Q-NH2 (staple 4-11) [I-1181], the “NanoBRET Abs IC50” value was over 20 µM.
As to Ac-[αAllylPro]D[Cha][B5″]DDAAFT[PyrS2(3)][Phe(F5)][Bta]S-NH2 (staple 1-4, 4-11) [I-1187], the “NanoBRET Abs IC50” value worked out at 28.6 µM.
Regarding Ac-[αAllylPro]D[tBuAla][B5″]DDAAFL[S8][3Thi][Bta]H-NH2 (staple 1-4, 4-11) [I-1195], the “NanoBRET Abs IC50” value was determined as 16.2 µM.
Consider Ac-[αAllylPro]D[tBuAla][B5″]DDAAFL[S8][3Thi][Bta]Q-NH2 (staple 1-4, 4-11) [I-1188], for which the “NanoBRET Abs IC50” value was 7.2 µM.
Same read-out and setting: the result for Ac-[αAllylPro]D[tBuAla][B5″]DDAAFN[PyrS2(3)][Phe(F5)][Bta]Q-NH2 (staple 1-4, 4-11) [I-1186] reads 23.6 µM; that for Ac-[αAllylPro]D[tBuAla][B5″]DDAAFL[PyrS2(3)][Phe(F5)][Bta]Q-NH2 (staple 1-4, 4-11) [I-1185], 26.9 µM.

The target in another experiment is T3, full-length beta-Catenin (Uniprot ID P35222) (Homo sapiens (Human), UniProt P35222 2-781).
T3 construct: also called bCat; B-Catenin
T3 sequence: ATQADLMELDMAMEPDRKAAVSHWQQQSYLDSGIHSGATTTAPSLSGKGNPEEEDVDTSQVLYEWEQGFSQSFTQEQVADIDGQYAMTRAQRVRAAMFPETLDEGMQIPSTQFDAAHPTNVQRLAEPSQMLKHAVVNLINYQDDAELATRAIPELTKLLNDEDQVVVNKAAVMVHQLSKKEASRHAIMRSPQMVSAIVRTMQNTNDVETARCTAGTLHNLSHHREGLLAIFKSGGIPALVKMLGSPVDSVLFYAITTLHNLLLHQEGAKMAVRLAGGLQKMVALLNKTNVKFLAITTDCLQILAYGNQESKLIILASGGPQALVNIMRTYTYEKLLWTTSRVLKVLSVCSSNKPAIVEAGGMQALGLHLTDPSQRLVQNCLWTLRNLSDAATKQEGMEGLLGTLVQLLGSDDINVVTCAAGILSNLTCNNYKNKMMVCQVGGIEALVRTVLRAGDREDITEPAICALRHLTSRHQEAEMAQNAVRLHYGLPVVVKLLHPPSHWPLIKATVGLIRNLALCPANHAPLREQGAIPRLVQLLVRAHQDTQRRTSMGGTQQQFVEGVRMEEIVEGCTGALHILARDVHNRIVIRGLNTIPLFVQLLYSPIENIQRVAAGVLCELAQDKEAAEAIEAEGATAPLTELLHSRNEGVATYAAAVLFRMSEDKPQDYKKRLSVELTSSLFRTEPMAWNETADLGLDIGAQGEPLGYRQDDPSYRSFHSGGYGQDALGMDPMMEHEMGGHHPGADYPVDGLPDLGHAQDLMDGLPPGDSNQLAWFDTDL
Nature of the experiment: fluorescence polarization competition; 10 nM full-length beta-catenin + 10 nM 5FAM-TCF4(10-53) probe, peptide titrated. The procedure: The plate was incubated protected from light for 60 minutes at 20° C. prior to read. Reads were performed on a CLARIOstar plate reader (BMG Labtech) in duplicate, and data were fitted to a 1:1 binding model with hill slope using an in-house script. All provided concentrations are final concentrations.
Consider Ac-[αAllylPro]DA[B5(23)]D[His(τ-Me)]AAFV[S8][Phe(3-F)][Bta]Q-NH2 (staple 1-4, 4-11, Stapled (stitched) peptide) [I-403], for which the EC50 (as a rule, the concentration needed to bring the measured effect to its halfway point) was 2.13 µM.
With Ac-[αAllylPro]DA[B5(23)]DEAAFT[S8]F[Bta]H-NH2 (staple 1-4, 4-11, Stapled (stitched) peptide) [I-420], the EC50 worked out at 0.128 µM.
On the same count and under the same terms, to Ac-[αAllylPro]DV[B5(23)]DEAAFQ[S8]F[Bta]Q-NH2 (staple 1-4, 4-11, Stapled (stitched) peptide) [I-410] belongs 0.05 µM; to Ac-[αAllylPro]DA[B5(23)]DEAAFT[S8]F[Bta]Q-NH2 (staple 1-4, 4-11, Stapled (stitched) peptide) [I-423], 0.105 µM.
